We go through one molecule from patent US20250283065A1, “TRUNCATED POLYPEPTIDES HAVING PROTEIN LIGASE ACTIVITY AND METHODS OF PRODUCTION THEREOF” (NANYANG TECHNOLOGICAL UNIVERSITY, priority 2022, published 2025).

In series [1] the test system is peptides PIE {EDANS} YNAL and GIK {DABSYL} SIP. In words: FRET ligation kinetics assay. In kind it is biochemical. The method, then: Kinetics assay: The kinetic properties of the peptide ligation of the constitutively active PAL were studied using a FRET assay. Two peptides synthesized by GenScript: PIE {EDANS} YNAL (SEQ ID NO:18) and GIK {DABSYL} SIP (SEQ ID NO:19) were mixed at a molar ratio of 1:3. Upon ligation, the peptide PIE {EDANS} YNGIK {DABSYL} SIP (SEQ ID NO: 20) is produced. 50 nM of PAL enzyme is mixed with various concentrations of the peptide mixture. The EDANS fluorescence signal was measured with an excitation wavelength of 336 nm and an emission wavelength of 490 nm. A reduction in EDANS fluorescence signal occurs upon ligation of the two peptides due to quenching by DABSYL. The variation in fluorescence signal for each substrate mixture concentration was measured after addition of the enzyme to initiate the reaction. The rate of decrease in fluorescence signal during the first 30 seconds after enzyme addition was plotted against the substrate concentration to obtain the Vmax, kcat and KM values for each enzyme.
Sequence of peptides PIE {EDANS} YNAL and GIK {DABSYL} SIP (as listed by the source): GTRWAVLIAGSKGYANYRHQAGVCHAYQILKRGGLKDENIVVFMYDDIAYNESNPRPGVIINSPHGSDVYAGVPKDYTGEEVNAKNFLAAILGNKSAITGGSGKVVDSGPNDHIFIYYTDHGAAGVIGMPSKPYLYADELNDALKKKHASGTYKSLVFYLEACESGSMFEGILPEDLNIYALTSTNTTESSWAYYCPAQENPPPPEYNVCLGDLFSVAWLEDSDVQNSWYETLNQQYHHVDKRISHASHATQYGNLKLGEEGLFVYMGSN
Next, using a FRET ligation assay, the ligase activity of the truncated OaAEP1b-C247A-Δ351 was compared with its acid-activated zymogen counterpart. Briefly, 50 nM of either enzyme was added to a mixture of two peptides A: PIE (EDANS) YNAL (SEQ ID NO:18) and B: GIK (DABSYL) SIP (SEQ ID NO:19). These two peptides were mixed in a A:B molar ratio of 1:3. Upon ligation, the fluorescence signal emission of the EDANS moiety of A (λem=490 nm) becomes quenched by the DABSYL moiety of B. (FIG. 7A). This assay the ligation rate to be followed between both peptides in real-time, giving access to the kinetic parameters of the truncated enzyme.

A short description of series [2]: Storage stability of the purified enzyme. In kind it is physicochemical. Particulars: −80° C. The method, then:
(§1) Refolding and purification of constitutively active OaAEP1b-C247A-4351 using dialysis method: With all steps performed at 4° C., protein purification was achieved by resuspending thawed pellets in 30 mL of lysis buffer (100 mM Bis-Tris, pH 6.5, 500 mM NaCl, 10% (v/v) glycerol), sonicating the pellets followed by clearing the lysates by centrifugation at 58,000 g for 45 min. The insoluble fraction was resolubilized in 10 mL of resolubilizing buffer (50 mM Bis-Tris, pH 6.5, 150 mM NaCl, 1 mM EDTA, 50 mM Glycine, 8 M urea) overnight, with agitation. The concentration of denatured protein was determined using nanodrop and diluted to ˜2 mg mL-1 with buffer 1 (50 mM Bis-Tris, pH 6.5, 150 mM NaCl, 500 mM L-Arginine, 1 M urea, 0.25 mM L-Glutathione oxidized, 2.5 mM L-Glutathione reduced). The diluted denatured protein was dialyzed against buffer 2 (50 mM Bis-Tris, pH 6.5, 150 mM NaCl, 200 mM L-Arginine, 0.125 mM L-Glutathione oxidized, 1.25 mM L-Glutathione reduced) for 8 hr, followed by two buffer exchanges with buffer 3 (20 mM Bis-Tris, pH 6.5, 150 mM NaCl), for a duration of 8 hr for each buffer exchange. The refolded proteins were purified by affinity chromatography (HisTrap column, Cytiva), followed by size exclusion chromatography (HiLoad 16/600 Superdex 200, Cytiva). The proteins eluted as monomers during size exclusion purification. […]

Series [3] is described as follows: Refolding from E. coli inclusion bodies (urea solubilization, dialysis). In kind it is physicochemical. Particulars: urea solubilization followed by refolding. The method, then:
as §1

Where [4] appears, read: 50 nM enzyme, peptides A:B molar ratio 1:3.

B1: OaAEP1b-C247A-Δ351: truncated OaAEP1b-C247A construct, residues 352-474 deleted, D351 as C-terminus; constitutively active peptide asparaginyl ligase (protein)
chain: GTRWAVLIAGSKGYANYRHQAGVCHAYQILKRGGLKDENIVVFMYDDIAYNESNPRPGVIINSPHGSDVYAGVPKDYTGEEVNAKNFLAAILGNKSAITGGSGKVVDSGPNDHIFIYYTDHGAAGVIGMPSKPYLYADELNDALKKKHASGTYKSLVFYLEACESGSMFEGILPEDLNIYALTSTNTTESSWCYYCPAQENPPPPEYNVCLGDLFSVAWLEDSDVQNSWYETLNQQYHHVDKRISHASHATQYGNLKLGEEGLFVYMGSNPANDNYTSLDGNALTPSSIVVNQRDAD
B1: in series [1] (setting [4]), the Km (as a rule, the substrate concentration at which the rate is half of its maximum) was found to be 8.16 µM and the Vmax was found to be 6.40 RFU/see. Further, the “ligation activity relative to acid-activated zymogen counterpart (fold less)” value in series [1] (FRET ligation assay) is “about 2 fold”. Further, in series [2], the storage stability entry is “up to two years”. The “behaviour during refolding procedure” value in series [3] is “could be refolded”.
